The source of these data is EP4803548A1 (Beijing Wisdomab Biotechnology Co., Ltd, dated 2026).

Assay [1] deals with T1, HLA-A02/HBsAg348-357 (…) complex on the cell surface (human; human (Homo sapiens) as printed …). The experiment in a line: cell-based or functional assay.
For assay [2], the target named is T1, HLA-A02/HBsAg348-357 (…) complex on the …. Nature of the assay: cell-based or functional assay. This is another data set of the same source.
For assay [3] the target is unchanged. The experiment in a line: cell-based or functional assay. This is another data set of the same source.
Assay [4] concerns the target T2, CD3D-CD3E-mFc (human; mouse).
T2 construct: also called antigen CD3D-CD3E-mFc
T2 chain 1: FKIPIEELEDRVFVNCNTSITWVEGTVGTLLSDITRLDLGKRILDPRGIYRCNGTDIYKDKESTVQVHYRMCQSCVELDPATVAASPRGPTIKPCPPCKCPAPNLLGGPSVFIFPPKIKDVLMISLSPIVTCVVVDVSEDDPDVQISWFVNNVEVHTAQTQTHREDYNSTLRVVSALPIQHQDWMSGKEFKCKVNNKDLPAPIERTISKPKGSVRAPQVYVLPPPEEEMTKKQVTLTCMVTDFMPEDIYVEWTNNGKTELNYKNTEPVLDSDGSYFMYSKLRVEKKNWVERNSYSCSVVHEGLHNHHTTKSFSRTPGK
T2 chain 2: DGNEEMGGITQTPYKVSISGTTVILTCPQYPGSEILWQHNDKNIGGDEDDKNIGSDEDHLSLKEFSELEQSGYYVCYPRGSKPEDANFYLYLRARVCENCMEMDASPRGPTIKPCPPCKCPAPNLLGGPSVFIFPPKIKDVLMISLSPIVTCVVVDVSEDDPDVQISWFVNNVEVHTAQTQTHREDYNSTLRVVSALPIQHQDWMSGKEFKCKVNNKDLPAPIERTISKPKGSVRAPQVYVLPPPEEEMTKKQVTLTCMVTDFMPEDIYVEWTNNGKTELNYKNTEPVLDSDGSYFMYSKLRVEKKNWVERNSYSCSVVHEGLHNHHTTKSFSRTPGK
Nature of the assay: SPR Biacore T200; method of Section 3.1, CD3D-CD3E-mFc as antigen.

Assay [5] deals with T1, HLA-A02/HBsAg348-357 (…) complex on the …. The experiment in a line: cell-based or functional assay. This is another data set of the same source.
Assay [6] has as its target T3, HLA-A02 complex presenting … (MIP-H1-01), disulfide trap single-chain trimer. The experiment in a line: SPR Biacore T200; method of Section 3.1. Background: Surface plasmon resonance follows binding to a sensor surface in real time, without labels.
In assay [7] the target is T3, HLA-A02 complex presenting … ….
Assay [8] shares this target. This is another data set of the same source.

Read-outs that look alike come from different tables or passages of the source.

B1: TCRm×CD3 bispecific antibody 2N1B5+IMCR (bispecific antibody)
chain 1: QVQLVESGGGSVQAGGSLRLSCAASDDTYMTNCMGWFRQAPGKEREGVAAIYTGGGRAVYADSVRGRFTISQDNAKNTVYLQMNSLKPEDTAMYYCAADWLGPDMTDIQVLGALPWFNYWGQGTLVTVSSGGGGSGGGGSGGGGSQVQLVESGGGSVQAGGSLRLSCAASDDTYMTNCMGWFRQAPGKEREGVAAIYTGGGRAVYADSVRGRFTISQDNAKNTVYLQMNSLKPEDTAMYYCAADWLGPDMTDIQVLGALPWFNYWGQGTLVTVSSASERKSSVECPPCPAPEFEGGPSVFLFPPKPKDTLMISRTPEVTCVVVDVSQEDPEVQFNWYVDGVEVHNAKTKPREEQYNSTYRVVSVLTVLHQDWLNGKEYKCKVSNKALPASIEKTISKAKGQPREPQVCTLPPSQEEMTKNQVSLSCAVKGFYPSDIAVEWESNGQPENNYKTTPPVLDSDGSFFLVSKLTVDKSRWQEGNVFSCSVMHEALHNHYTQKSLSLSPGK
chain 2: not shown
A word on the Kd: it is a measure of binding affinity in units of concentration. Lower therefore signals higher affinity. What is called koff is the first-order rate constant of dissociation. Low readings indicate a long-lived complex, high ones a short-lived complex. What is called kon is the second-order rate constant of association. A high value points to faster complex formation. For B1, the “EC50 of killing of HepG2-HBsAg cells by PBMCs (LDH release)” value in assay [1] is 8.83 pM. The “EC50 of activation of Jurkat-Dual cells by targeting HLA-A02+/HBsAg+ tumor cells HepG2-HBsAg (QUANTI-Luc)” value in assay [2] was determined as 389 pM. In addition, the “EC50 of killing of antigen peptide-pulsed T2 cells by PBMCs (LDH release)” value in assay [3] worked out at 0.278 pM. Further, in assay [4], the dissociation constant Kd was 2960 pM, the dissociation rate constant (koff) amounted to 0.000175 s⁻¹ and the kon was found to be 59200 M⁻¹ s⁻¹. For the same molecule, in assay [5], the “EC50 of activation of Jurkat-Dual cells by targeting antigen peptide-pulsed T2 cells (QUANTI-Luc)” value is 2.41 pM. In assay [6], this molecule yielded an equilibrium dissociation constant (Kd) of 237 pM, an off-rate (koff) of 0.000145 s⁻¹ and a kon of 613000 M⁻¹ s⁻¹.

B2: TCRm×CD3 bispecific antibody 2N1B5-h4+IMCR (bispecific antibody)
chain 1: EVQLVESGGGLVQPGGSLRLSCAASDDTYMTNCMGWFRQAPGKERVGVAAIYTGGGRAVYADSVRGRFTISQDNAKNTVYLQMNSLKPEDTAMYYCAADWLGPDMTDIQVLGALPWFNYWGQGTLVTVSSGGGGSGGGGSGGGGSEVQLVESGGGLVQPGGSLRLSCAASDDTYMTNCMGWFRQAPGKERVGVAAIYTGGGRAVYADSVRGRFTISQDNAKNTVYLQMNSLKPEDTAMYYCAADWLGPDMTDIQVLGALPWFNYWGQGTLVTVSSASERKSSVECPPCPAPEFEGGPSVFLFPPKPKDTLMISRTPEVTCVVVDVSQEDPEVQFNWYVDGVEVHNAKTKPREEQYNSTYRVVSVLTVLHQDWLNGKEYKCKVSNKALPASIEKTISKAKGQPREPQVCTLPPSQEEMTKNQVSLSCAVKGFYPSDIAVEWESNGQPENNYKTTPPVLDSDGSFFLVSKLTVDKSRWQEGNVFSCSVMHEALHNHYTQKSLSLSPGK
chain 2: not shown
For B2, the “EC50 of killing of HepG2-HBsAg cells by PBMCs (LDH release)” value in assay [1] was 9.52 pM. Besides, the “EC50 of killing of antigen peptide-pulsed T2 cells by PBMCs (LDH release)” value in assay [3] came to 0.209 pM. In assay [4], the equilibrium dissociation constant (Kd) amounted to 2040 pM, the koff stood at 0.000132 s⁻¹ and the kon amounted to 64700 M⁻¹ s⁻¹. Further, in assay [6], the Kd is 531 pM, the koff was found to be 0.00014 s⁻¹ and the kon was 263000 M⁻¹ s⁻¹.

B3: N1B5-h4-Fc recombinant protein (humanized anti-HLA-A02/HBsAg complex TCRm antibody N1B5-h4) (Fc fusion)
chain: EVQLVESGGGLVQPGGSLRLSCAASDDTYMTNCMGWFRQAPGKERVGVAAIYTGGGRAVYADSVRGRFTISQDNAKNTVYLQMNSLKPEDTAMYYCAADWLGPDMTDIQVLGALPWFNYWGQGTLVTVSS
In assay [7], B3 had a Kd of 191 pM, an off-rate constant (koff) of 0.000125 s⁻¹ and an on-rate constant (kon) of 656000 M⁻¹ s⁻¹.

B4: N1B5-Fc recombinant protein (anti-HLA-A02/HBsAg complex TCRm antibody N1B5) (Fc fusion, not shown: a dimerising Fc or GST)
chain: QVQLVESGGGSVQAGGSLRLSCAASDDTYMTNCMGWFRQAPGKEREGVAAIYTGGGRAVYADSVRGRFTISQDNAKNTVYLQMNSLKPEDTAMYYCAADWLGPDMTDIQVLGALPWFNYWGQGTLVTVSS
Turning to B4, in assay [8], binding was characterised by a dissociation constant (Kd) of 140 pM, the koff amounted to 9.7e-05 s⁻¹ and the kon was found to be 692000 M⁻¹ s⁻¹.
